Earlier results on 2 substances are cited in article PMC11641302.

What is called pKa is the pH at which an ionisable group is half protonated.

In data set [1] the target is Nterm1 (UniProt position 2, ----MPVYMVY).
Data set [2] deals with Nterm1 (UniProt position 2, ----MPLLKFD).

Take “cis-3-chloroacrylic acid dehalogenase (cis-CaaD) (Coryneform bacterium)”: the pKa in data set [1] is listed as around 9.3.
As to “malonate semialdehyde decarboxylase (MSAD) (Pseudomonas pavonaceae)”, the pKa in data set [2] was around 9.2.
